# Data taken from PMC7193532 (Acta Crystallographica. Section D, Structural Biology, 2020).
# Several values for one entry are separate records, joined by “and”; a condition that tells them apart may be missing. Identical values can stand only once.
# Target: the Ala and ValAla insertions and the Met1Ala substitution and Ala insertion
# Experiment: SPR
substance,measurement,value
rufomycin I (RUF-I) (peptide),fold reduction in binding affinity against wild type,13 fold and 16 fold
